Results: US20250368745A1 (published 2025)
Where two headings read alike, the source gives them in different places.

T1: human IL-18BP (interleukin-18 binding protein, isoform A) (human, UniProt O95998 31-194)
T1 sequence: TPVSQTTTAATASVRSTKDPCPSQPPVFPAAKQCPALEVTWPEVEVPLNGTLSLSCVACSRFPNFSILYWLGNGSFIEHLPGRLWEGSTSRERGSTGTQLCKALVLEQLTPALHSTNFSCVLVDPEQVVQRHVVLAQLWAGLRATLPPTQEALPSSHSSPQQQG

T2: cynomolgus IL-18BP (cynomolgus monkey)
T2 construct: Generated in-house; also called cyIL-18BP; cyno IL-18BP
T2 chain: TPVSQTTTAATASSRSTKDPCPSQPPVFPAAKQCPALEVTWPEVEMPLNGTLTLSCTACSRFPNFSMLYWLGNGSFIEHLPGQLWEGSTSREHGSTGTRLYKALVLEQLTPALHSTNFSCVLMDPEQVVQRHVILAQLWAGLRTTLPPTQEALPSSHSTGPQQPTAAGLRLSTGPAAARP


What was measured:
[1] = target: T1, human IL-18BP (interleukin-18 binding …); assay: cell-based or functional assay
[2] = target: T1, human IL-18BP (interleukin-18 binding …); assay: BLI (Octet), mAb on AHC biosensor
cynomolgus IL-18BP [3] = target: T2, cynomolgus IL-18BP; assay: BLI (Octet), mAb on AHC biosensor
[4] = target: T1, human IL-18BP (interleukin-18 binding …); assay: cell-based or functional assay; remark: listed apart in the source
[5] = target: hypo-IL-18 (IL-18 tethered to IL-18BP by a flexible linker with TEV site, 6xHis) (human); assay: BLI
Chain of hypo-IL-18 (IL-18 tethered to IL-18BP by a flexible linker with TEV site, 6xHis) (human) (chain, as listed by the source limits assumed): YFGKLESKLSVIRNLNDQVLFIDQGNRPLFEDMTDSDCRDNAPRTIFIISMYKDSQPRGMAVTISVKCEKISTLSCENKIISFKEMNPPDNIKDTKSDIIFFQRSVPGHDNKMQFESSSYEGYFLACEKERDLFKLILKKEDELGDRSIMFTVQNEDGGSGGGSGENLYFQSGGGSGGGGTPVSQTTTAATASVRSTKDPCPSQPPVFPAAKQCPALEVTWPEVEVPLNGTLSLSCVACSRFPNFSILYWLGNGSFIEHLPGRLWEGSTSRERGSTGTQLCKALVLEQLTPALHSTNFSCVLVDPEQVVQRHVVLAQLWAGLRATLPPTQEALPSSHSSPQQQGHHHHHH

[6] = target: T1, human IL-18BP (interleukin-18 binding …); assay: BLI (Octet), mAb on AHC biosensor; remark: listed apart in the source
cynomolgus IL-18BP [7] = target: T2, cynomolgus IL-18BP; assay: BLI (Octet), mAb on AHC biosensor
[8] = target: T1, human IL-18BP (interleukin-18 binding …); assay: BLI, affinity column of Table E8
cynomolgus IL-18BP [9] = target: T2, cynomolgus IL-18BP; assay: ratio of BLI KDs, cyno against human IL-18BP
[10] = target: T1, human IL-18BP (interleukin-18 binding …); assay: cell-based or functional assay; remark: listed apart in the source

| Binder | EC50 (nM), HEK293 IL-18 Reporter Assay (SEAP) [1] | Kd [2] | Kd (cynomolgus IL-18BP [3]) | EC50 (nM), KG-1 Assay (IFNγ) [4] | binding result [5] | Kd [6] | Kd (cynomolgus IL-18BP [7]) | Kd [8] | Cyno/human (cynomolgus IL-18BP [9]) | EC50 in PBMC Assay 1 (endogenous IL-18BP), IFNγ [10] | EC50 in PBMC Assay 2 (precomplexed IL-18BP), IFNγ [10] |
| --- | --- | --- | --- | --- | --- | --- | --- | --- | --- | --- | --- |
| SA33a (antibody, human IgG1, V domains shown, murine variable regions on human IgG1 kappa constant regions) VH: QVQLQQSGAELVRPGVSVKISCKGSGYTFTDYAMHWVKQSHAKSLEWIGVISTYYGDASYNQKFKGKATMTVDKSSSTAYMELARLTSEDSAIYYCARERDYYGSRLFDYWGQGTTLTVSS VL: EIVLTQSPTTMAASPGEKITITCSANSSISSNYLHWYQQKPGFSPKLLIYGTSNLASGVPARFSGSGSGTSYSLTIGTMEAEDVATYYCQQGSSIPYTFGGGTKLEIK | 0.36 nM | 3 nM | 16 nM | 129 nM | no binding |  |  |  |  |  |  |
| SA32a (antibody, human IgG1, V domains shown, murine variable regions on human IgG1 kappa constant regions) VH: EVQLQQSGPELVKTGASVKISCKASGYSFTGYYMHWVKQSHGKSLEWIGYISCYNGATSYNQKFKGKATFTVDTSSSTAYMQFNSLTSEDSAVYYCAITLHYAMDYWGQGTSVAS VL: DIVMTQAAFSNPVTLGTSASISCRSSKSLLHSNGITYLYWYLQKPGQSPQLLIYQMSNLASGVPDRFSSSGSGTDFTLRISRVEAEDVGVYYCAQNLELPWTFGGGTKLEIK | 6.82 nM | 17 nM | 19 nM | 109 nM | no binding |  |  |  |  |  |  |
| SA302a (antibody, human IgG1, V domains shown, humanized; human IgG1 (suffix a), kappa) VH: QVQLQESGPGLVKPSQTLSLTCTVSGYSITSDYNAHWIRQPPGKGLEWIGYIHYSGSTNYNPSLKSRVTISRDTSKNQFSLKLSSVTAADTAVYYCARNYGSIYVNYFDYWGQGTLVTVSS VL: EIVLTQSPATLSLSPGERATLSCSASSSVSYMYWYQQKPGQAPRPLIYRTSNLASGIPARFSGSGSGTDFTLTISSLEPEDFAVYYCQQYHSYPTFGGGTKVEIK |  |  |  |  |  | 0.345 nM | 0.156 nM | 0.345 nM | 0.45 ratio | 15 nM | 2.15 nM |
| SA337a (antibody, human IgG1, V domains shown, humanized; human IgG1 (suffix a), kappa) VH: QVQLQESGPGLVKPSQTLSLTCTVSGYSITQDYNAHWIRQPPGKGLEWIGYIHYSGQTNYNPSLKSRVTISRDTSKNQFSLKLSSVTAADTAVYYCARNYGSIYVNYFDYWGQGTLVTVSS VL: EIVLTQSPATLSLSPGERATLSCSASSSVSYMYWYQQKPGQAPRPLIYRTSNLASGIPARFSGSGSGTDFTLTISSLEPEDFAVYYCQLYHSYPTFGGGTKVEIK |  |  |  |  |  | 0.047 nM | 0.042 nM | 0.047 nM | 0.89 ratio | 1 nM | 0.58 nM |
| SA330a (antibody, human IgG1, V domains shown, humanized; human IgG1 (suffix a), kappa) VH: QVQLQESGPGLVKPSQTLSLTCTVSGYSITSDYNAHWIRQPPGKGLEWIGYIHYSGQTYYNPSLKSRVTISRDTSKNQFSLKLSSVTAADTAVYYCARNFGSIYVNYFDYWGQGTLVTVSS VL: EIVLTQSPATLSLSPGERATLSCSASSSVSYMYWYQQKPGQAPRPLIYRTSNLASGIPARFSGSGSGTDFTLTISSLEPEDFAVYYCQQYHSYPTFGGGTKVEIK |  |  |  |  |  | 0.076 nM |  | 0.076 nM |  | 21 nM | 0.9 nM |
| SA307a (antibody, human IgG1, V domains shown, humanized; human IgG1 (suffix a), kappa) VH: QVQLQESGPGLVKPSQTLSLTCTVSGYSITQDYNAHWIRQPPGKGLEWIGYIHYSGSTNYNPSLKSRVTISRDTSKNQFSLKLSSVTAADTAVYYCARNYGSIYVNYFDYWGQGTLVTVSS VL: EIVLTQSPATLSLSPGERATLSCSASSSVSYMYWYQQKPGQAPRPLIYRTSNLASGIPARFSGSGSGTDFTLTISSLEPEDFAVYYCQQYHSYPTFGGGTKVEIK |  |  |  |  |  | 0.054 nM | 0.027 nM | 0.054 nM | 0.5 ratio | 1.6 nM | 1.47 nM |
| SA322a (antibody, human IgG1, V domains shown, humanized; human IgG1 (suffix a), kappa) VH: QVQLQESGPGLVKPSQTLSLTCTVSGYSITQDYNAHWIRQPPGKGLEWIGYIHYSGQTNYNPSLKSRVTISRDTSKNQFSLKLSSVTAADTAVYYCARNYGSIYVNYFDYWGQGTLVTVSS VL: EIVLTQSPATLSLSPGERATLSCSASSSVSYMYWYQQKPGQAPRPLIYRTSNLASGIPARFSGSGSGTDFTLTISSLEPEDFAVYYCQQYHSYPTFGGGTKVEIK |  |  |  |  |  | 0.054 nM | 0.02 nM | 0.054 nM | 0.37 ratio | 0.8 nM | 0.53 nM |
| SA320a (antibody, human IgG1, V domains shown, humanized; human IgG1 (suffix a), kappa) VH: QVQLQESGPGLVKPSQTLSLTCTVSGYSITQDYNAHWIRQPPGKGLEWIGYIHYSGQTYYNPSLKSRVTISRDTSKNQFSLKLSSVTAADTAVYYCARNFGSIYVNYFDYWGQGTLVTVSS VL: EIVLTQSPATLSLSPGERATLSCSASSSVSYMYWYQQKPGQAPRPLIYRTSNLASGIPARFSGSGSGTDFTLTISSLEPEDFAVYYCQQYHSYPTFGGGTKVEIK |  |  |  |  |  | 0.052 nM | 0.02 nM | 0.052 nM | 0.38 ratio | 0.3 nM | 0.25 nM |
| SA309a (antibody, human IgG1, V domains shown, humanized; human IgG1 (suffix a), kappa) VH: QVQLQESGPGLVKPSQTLSLTCTVSGYSITSDYNAHWIRQPPGKGLEWIGYIHYSGQTNYNPSLKSRVTISRDTSKNQFSLKLSSVTAADTAVYYCARNYGSIYVNYFDYWGQGTLVTVSS VL: EIVLTQSPATLSLSPGERATLSCSASSSVSYMYWYQQKPGQAPRPLIYRTSNLASGIPARFSGSGSGTDFTLTISSLEPEDFAVYYCQQYHSYPTFGGGTKVEIK |  |  |  |  |  | 0.061 nM | 0.024 nM | 0.061 nM | 0.39 ratio | 2.8 nM | 0.62 nM |
| SA338a (antibody, human IgG1, V domains shown, humanized; human IgG1 (suffix a), kappa) VH: QVQLQESGPGLVKPSQTLSLTCTVSGYSITQDYNAHWIRQPPGKGLEWIGYIHYSGQTYYNPSLKSRVTISRDTSKNQFSLKLSSVTAADTAVYYCARNFGSIYVNYFDYWGQGTLVTVSS VL: EIVLTQSPATLSLSPGERATLSCSASSSVSYMYWYQQKPGQAPRPLIYRTSNLASGIPARFSGSGSGTDFTLTISSLEPEDFAVYYCQLYHSYPTFGGGTKVEIK |  |  |  |  |  | 0.032 nM | 0.024 nM | 0.032 nM | 0.67 ratio | 0.5 nM | 0.33 nM |
| SA329a (antibody, human IgG1, V domains shown, humanized; human IgG1 (suffix a), kappa) VH: QVQLQESGPGLVKPSQTLSLTCTVSGYSITSDYNAHWIRQPPGKGLEWIGYIHYSGSTNYNPSLKSRVTISRDTSKNQFSLKLSSVTAADTAVYYCARNYGSIYVNYFDYWGQGTLVTVSS VL: EIVLTQSPATLSLSPGERATLSCSASSSVSYMYWYQQKPGQAPRPLIYRTSNLASGIPARFSGSGSGTDFTLTISSLEPEDFAVYYCQQYHSYPKFGGGTKVEIK |  |  |  |  |  | 0.107 nM |  | 0.107 nM |  | 5.3 nM | 7.4 nM |
| SA310a (antibody, human IgG1, V domains shown, humanized; human IgG1 (suffix a), kappa) VH: QVQLQESGPGLVKPSQTLSLTCTVSGYSITSDYNAHWIRQPPGKGLEWIGYIHYSGSTMYNPSLKSRVTISRDTSKNQFSLKLSSVTAADTAVYYCARNYGSIYVNYFDYWGQGTLVTVSS VL: EIVLTQSPATLSLSPGERATLSCSASSSVSYMYWYQQKPGQAPRPLIYRTSNLASGIPARFSGSGSGTDFTLTISSLEPEDFAVYYCQQYHSYPTFGGGTKVEIK |  |  |  |  |  | 0.175 nM | 0.028 nM | 0.175 nM | 0.16 ratio | 1.9 nM | 0.94 nM |
| SA303a (antibody, human IgG1, V domains shown, humanized; human IgG1 (suffix a), kappa) VH: QVQLQESGPGLVKPSQTLSLTCTVSGYSITSDYNAHWIRQPPGKGLEWIGYIHYSGSTNYNPSLKSRVTISRDTSKNQFSLKLSSVTAADTAVYYCARNFGSIYVNYFDYWGQGTLVTVSS VL: EIVLTQSPATLSLSPGERATLSCSASSSVSYMYWYQQKPGQAPRPLIYRTSNLASGIPARFSGSGSGTDFTLTISSLEPEDFAVYYCQQYHSYPTFGGGTKVEIK |  |  |  |  |  | 0.182 nM | 0.077 nM | 0.182 nM | 0.42 ratio | 1.6 nM | 2.75 nM |
| SA340a (antibody, human IgG1, V domains shown, humanized; human IgG1 (suffix a), kappa) VH: QVQLQESGPGLVKPSQTLSLTCTVSGYSITQDYNAHWIRQPPGKGLEWIGYIHYSGQTYYNPSLKSRVTISRDTSKNQFSLKLSSVTAADTAVYYCARNFGSIYVNYFDYWGQGTLVTVSS VL: EIVLTQSPATLSLSPGERATLSCSASSSVSYMYWYQQKPGQAPRPLIYRTSNLASGIPARFSGSGSGTDFTLTISSLEPEDFAVYYCQQYHSYPKFGGGTKVEIK |  |  |  |  |  | 0.027 nM | 0.036 nM |  | 1.33 ratio |  |  |
